Source: patent CN114989291A (ZHEJIANG ANWEILUO DIAGNOSTIC TECH CO LTD, dated 2022)

Assays:
Assay in all cases: cell-based or functional assay
[1] = molecular target: SARS-CoV-2 S蛋白, 突变株 B.1.1.7 (SARS-CoV-2)
[2] = molecular target: SARS-CoV-2 S蛋白, 突变株 B.1.525 (SARS-CoV-2)
SARS-CoV-2 S蛋白, 突变株 P.1 = SARS-CoV-2 S蛋白, 突变株 P.1 (SARS-CoV-2)
[3] = molecular target: SARS-CoV-2 S蛋白, 突变株 B.1.617.2 (SARS-CoV-2)
[4] = molecular target: SARS-CoV-2 S蛋白, 突变株 B.1.351 (SARS-CoV-2)

B1: 抗SARS-CoV-2全人源化单克隆抗体1B3 (antibody, V domains shown)
VH: VQLVESGGGVVQPGRSLRLSCAASGFTFSSYAMHWVRQAPGKGLEWVAVISYDGSNKYYADSVKGRFTISRDNSKNTLYLQMNSLRAEDTAVYYCAKVAGGPYYYDSSGRDWYFDLWGRGTLVTVSA
VL: DIQMTQSPSSLSASVGDRVSITCRASQSISSFLNWFQQKPGKAPNLLIYAASSLESGVPSRFSGSGSGTDFTLTISSLQPEDFATYYCQQSYSAPPTFGQGTRLEIKR
[1]
  EC50, 假病毒细胞模型中和活性 (luciferase, ACE2-293T细胞): 2.51 µg/mL
[2]
  EC50, 假病毒细胞模型中和活性 (luciferase, ACE2-293T细胞): 1.7 µg/mL
SARS-CoV-2 S蛋白, 突变株 P.1
  EC50, 假病毒细胞模型中和活性 (luciferase, ACE2-293T细胞): 3.83 µg/mL
[3]
  EC50, 假病毒细胞模型中和活性 (luciferase, ACE2-293T细胞): 1.69 µg/mL
[4]
  EC50, 假病毒细胞模型中和活性 (luciferase, ACE2-293T细胞): 2.05 µg/mL
